Test [1] has as its target FAK (focal adhesion kinase) (UniProt O35346). Kind of test: S-bead precipitation of SFB-FAK, Dyn2 blot. The settings on record: reference: wild-type Dyn2; sites Y231,Y597.
Test [2] deals with FAK (focal adhesion kinase) FERM domain (UniProt O35346). Kind of test: GST-FERM pull-down of His-Dyn2. The settings on record: reference: His-Dyn2 wild type from TKB1 (phosphorylated); sites Y231,Y597.
Test [3] has as its target SFB-FAK (S protein, Flag, and streptavidin binding peptide triple tagged FAK) (rat, UniProt O35346 1-1055). Kind of test: co-IP.
In test [4] the target is T1, GST-FERM (FERM domain of FAK) (rat, UniProt O35346 35-355).
T1 sequence (looked up): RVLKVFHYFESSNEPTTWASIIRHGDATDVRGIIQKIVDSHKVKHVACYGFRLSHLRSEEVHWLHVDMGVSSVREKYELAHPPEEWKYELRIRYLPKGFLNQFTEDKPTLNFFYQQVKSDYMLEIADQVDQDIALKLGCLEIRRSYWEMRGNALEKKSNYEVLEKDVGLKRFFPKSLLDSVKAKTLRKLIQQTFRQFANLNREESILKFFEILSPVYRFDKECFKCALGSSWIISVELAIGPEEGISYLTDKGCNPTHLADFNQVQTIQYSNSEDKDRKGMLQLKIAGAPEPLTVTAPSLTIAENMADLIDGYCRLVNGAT
Nature of the test: pull-down.

SFB-FAK (S protein, Flag, and streptavidin binding peptide triple tagged FAK), sequence (O35346 whole entry, the tested form may be a part): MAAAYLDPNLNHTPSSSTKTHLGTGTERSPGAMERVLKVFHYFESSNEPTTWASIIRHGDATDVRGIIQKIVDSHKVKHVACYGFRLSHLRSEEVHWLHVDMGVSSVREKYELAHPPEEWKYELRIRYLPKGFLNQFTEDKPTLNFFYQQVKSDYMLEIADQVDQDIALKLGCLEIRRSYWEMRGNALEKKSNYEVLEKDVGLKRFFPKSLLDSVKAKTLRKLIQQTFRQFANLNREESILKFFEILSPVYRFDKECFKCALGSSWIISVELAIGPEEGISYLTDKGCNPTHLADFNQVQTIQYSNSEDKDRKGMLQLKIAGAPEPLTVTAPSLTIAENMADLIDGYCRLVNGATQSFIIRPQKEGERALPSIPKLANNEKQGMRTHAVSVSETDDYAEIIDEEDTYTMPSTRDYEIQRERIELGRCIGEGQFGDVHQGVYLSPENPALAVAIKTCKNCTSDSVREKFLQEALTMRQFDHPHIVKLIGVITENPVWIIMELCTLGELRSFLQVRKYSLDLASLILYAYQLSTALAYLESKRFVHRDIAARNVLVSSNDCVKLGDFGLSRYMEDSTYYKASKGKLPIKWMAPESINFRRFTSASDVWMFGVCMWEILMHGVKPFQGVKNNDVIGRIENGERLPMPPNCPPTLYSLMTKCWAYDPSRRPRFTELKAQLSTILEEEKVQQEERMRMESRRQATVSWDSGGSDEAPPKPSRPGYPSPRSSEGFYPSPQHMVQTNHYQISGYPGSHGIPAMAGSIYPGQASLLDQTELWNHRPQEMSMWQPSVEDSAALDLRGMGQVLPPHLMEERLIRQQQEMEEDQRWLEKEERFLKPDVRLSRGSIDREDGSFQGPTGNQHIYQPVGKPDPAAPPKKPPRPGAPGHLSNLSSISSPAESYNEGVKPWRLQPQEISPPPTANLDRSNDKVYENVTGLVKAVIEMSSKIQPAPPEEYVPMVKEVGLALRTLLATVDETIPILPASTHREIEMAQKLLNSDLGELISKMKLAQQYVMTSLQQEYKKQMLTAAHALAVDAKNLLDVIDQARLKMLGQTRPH

Take “Dyn2 (dynamin-2) (from UniProt P39052) Dyn2 Y231F/Y597F (YF)”: the fold change entry in test [1] is on record as “weaker; reference 3.2 ± 0.6-fold”.

Consider “Dyn2 (dynamin-2) (from UniProt P39052) His-Dyn2 Y231F/Y597F from TKB1”, for which the fold change entry in test [2] was “weaker; reference threefold”.

B1: Dyn2 WT (dynamin-2, wild type), expressed in cells (natural protein)
chain: MGNRGMEELIPLVNKLQDAFSSIGQSCHLDLPQIAVVGGQSAGKSSVLENFVGRDFLPRGSGIVTRRPLILQLIFSKTEYAEFLHCKSKKFTDFDEVRQEIEAETDRVTGTNKGISPVPINLRVYSPHVLNLTLIDLPGITKVPVGDQPPDIEYQIKDMILQFISRESSLILAVTPANMDLANSDALKLAKEVDPQGLRTIGVITKLDLMDEGTDARDVLENKLLPLRRGYIGVVNRSQKDIEGRKDIRAALAAERKFFLSHPAYRHMADRMGTPHLQKTLNQQLTNHIRESLPTLRSKLQSQLLSLEKEVEEYKNFRPDDPTRKTKALLQMVQQFGVDFEKRIEGSGDQVDTLELSGGARINRIFHERFPFELVKMEFDEKDLRREISYAIKNIHGVRTGLFTPDLAFEAIVKKQVVKLKEPCLKCVDLVIQELISTVRQCTSKLSSYPRLREETERIVTTYIREREGRTKDQILLLIDIEQSYINTNHEDFIGFANAQQRSTQLNKKRAIPNQGEILVIRRGWLTINNISLMKGGSKEYWFVLTAESLSWYKDEEEKEKKYMLPLDNLKIRDVEKGFMSNKHVFAIFNTEQRNVYKDLRQIELACDSQEDVDSWKASFLRAGVYPEKDQAENEDGAQENTFSMDPQLERQVETIRNLVDSYVAIINKSIRDLMPKTIMHLMINNTKAFIHHELLAYLYSSADQSSLMEESAEQAQRRDDMLRMYHALKEALNIIGDISTSTVSTPVPPPVDDTWLQNTSSHSPTPQRRPVSSVHPPGRPPAVRGPTPGPPLIPMPVGATSSFSAPPIPSRPGPQNVFANNDPFSAPPQIPSRPARIPPGIPPGVPSRRAPAAPSRPTIIRPAEPSLLD
On to B1, for which the “fold co-precipitated relative to Dyn2 YF” value in test [3] worked out at 3.2 ± 0.6 fold.

B2: His-Dyn2 WT purified from TKB1 E. coli (pDyn2 protein) (natural protein)
chain: MGNRGMEELIPLVNKLQDAFSSIGQSCHLDLPQIAVVGGQSAGKSSVLENFVGRDFLPRGSGIVTRRPLILQLIFSKTEYAEFLHCKSKKFTDFDEVRQEIEAETDRVTGTNKGISPVPINLRVYSPHVLNLTLIDLPGITKVPVGDQPPDIEYQIKDMILQFISRESSLILAVTPANMDLANSDALKLAKEVDPQGLRTIGVITKLDLMDEGTDARDVLENKLLPLRRGYIGVVNRSQKDIEGRKDIRAALAAERKFFLSHPAYRHMADRMGTPHLQKTLNQQLTNHIRESLPTLRSKLQSQLLSLEKEVEEYKNFRPDDPTRKTKALLQMVQQFGVDFEKRIEGSGDQVDTLELSGGARINRIFHERFPFELVKMEFDEKDLRREISYAIKNIHGVRTGLFTPDLAFEAIVKKQVVKLKEPCLKCVDLVIQELISTVRQCTSKLSSYPRLREETERIVTTYIREREGRTKDQILLLIDIEQSYINTNHEDFIGFANAQQRSTQLNKKRAIPNQGEILVIRRGWLTINNISLMKGGSKEYWFVLTAESLSWYKDEEEKEKKYMLPLDNLKIRDVEKGFMSNKHVFAIFNTEQRNVYKDLRQIELACDSQEDVDSWKASFLRAGVYPEKDQAENEDGAQENTFSMDPQLERQVETIRNLVDSYVAIINKSIRDLMPKTIMHLMINNTKAFIHHELLAYLYSSADQSSLMEESAEQAQRRDDMLRMYHALKEALNIIGDISTSTVSTPVPPPVDDTWLQNTSSHSPTPQRRPVSSVHPPGRPPAVRGPTPGPPLIPMPVGATSSFSAPPIPSRPGPQNVFANNDPFSAPPQIPSRPARIPPGIPPGVPSRRAPAAPSRPTIIRPAEPSLLD
modifications: tyrosine-phosphorylated: recognised by the 4G10 and pDyn2 (pTyr-231) antibodies
With B2, the “fold association relative to Dyn2 YF” value in test [4] stood at 3 fold.

The record behind these values is article PMC3084675 (Molecular Biology of the Cell, 2011).
